{
  "source": "paper PMC7729563",
  "about": "“Phospho-Mutant Activity Assays Provide Evidence for the Negative Regulation of Transcriptional Regulator PRE1 by Phosphorylation” (International Journal of Molecular Sciences, 2020)",
  "parents": {"B1": {"name": "AD-PRE1 (PACLOBUTRAZOL-RESISTANT-1 fused to GAL4AD) [Arabidopsis thaliana] / BD-IBH1 (ILI1 BINDING bHLH PROTEIN1 fused to GAL4BD) [Arabidopsis thaliana] (parent complex)", "chain 1": "MSNRRSRQSSSAPRISDNQMIDLVSKLRQILPEIGQRRRSDKASASKVLQETCNYIRNLNREVDNLSERLSQLLESVDEDSPEAAVIRSLLM", "chain 2": "MASADKLINTDVPEKDVFAFHFLQSLSNLRKQNPFDTPDQKNYRVRKIKKAAYVSMARAAGGSSRLWSRALLRRADKDDNKIVRFSRRKWKISSKRRRSNQRAPVVEEAAERLRNLVPGGGGMETSKLMEETAHYIKCLSMQVKVMQCLVDGLSPK"}},
  "data": [
    {"variants_of": "B1", "assay": "pull-down, band quantification normalized to input; parent: 0.32; read off a plot", "units": {"response": "Pull-down/Input"}, "values": [
      {"variant": "chain 1 S67E", "response": "~0.13"},
      {"variant": "chain 1 S67A", "response": "~0.23"}
    ]},
    {"variants_of": "B1", "assay": "yeast two-hybrid, quantitative β-galactosidase assay; parent: 3.9; read off a plot", "values": [
      {"variant": "chain 1 S67E", "response": "~2.3 β-gal units"},
      {"variant": "chain 1 S67A", "response": "~3.6 β-gal units"}
    ]},
    {"variants_of": "B1", "assay": "Ratiometric-Bimolecular Fluorescence Complementation (rBiFC) in tobacco; n = 50 images; parent: 0.42; read off a plot", "units": {"response": "YFP/RFP"}, "values": [
      {"variant": "chain 1 S67E", "response": "~0.16"}
    ]}
  ]
}
